Data set [1] addresses T1, PAX3::FOXO1 fusion protein (UniProt P23760 1-391+Q12778:211-655, internal_change). The data set can be described thus: SPR; DNA 1.25-80 nM; SPR, Biacore T-200, CM5 chip; PBS-P (20 mM phosphate pH 7.4, 137 mM NaCl, 2.7 mM KCl, 0.05% P20) stated as immobilization running buffer, with 5% DMSO for small molecules; temperature not stated. Conditions: protein: recombinant; tags: C-terminal 12xHis; N-terminal internal HA tag; blunt. On the technique in general: In SPR one partner is held on a chip, and binding of the other changes the refractive index at the surface.

For data set [2], the target named is T1, PAX3::FOXO1 fusion protein. The data set can be described thus: SPR; SPR, Biacore T-200, CM5 chip; PBS-P (20 mM phosphate pH 7.4, 137 mM NaCl, 2.7 mM KCl, 0.05% P20) stated as immobilization running buffer, with 5% DMSO for small molecules; temperature not stated. The settings on record: protein: recombinant; tags: C-terminal 12xHis; N-terminal internal HA tag; blunt.

T1 sequence (P23760 other isoform, or with tags, fused parts or gaps): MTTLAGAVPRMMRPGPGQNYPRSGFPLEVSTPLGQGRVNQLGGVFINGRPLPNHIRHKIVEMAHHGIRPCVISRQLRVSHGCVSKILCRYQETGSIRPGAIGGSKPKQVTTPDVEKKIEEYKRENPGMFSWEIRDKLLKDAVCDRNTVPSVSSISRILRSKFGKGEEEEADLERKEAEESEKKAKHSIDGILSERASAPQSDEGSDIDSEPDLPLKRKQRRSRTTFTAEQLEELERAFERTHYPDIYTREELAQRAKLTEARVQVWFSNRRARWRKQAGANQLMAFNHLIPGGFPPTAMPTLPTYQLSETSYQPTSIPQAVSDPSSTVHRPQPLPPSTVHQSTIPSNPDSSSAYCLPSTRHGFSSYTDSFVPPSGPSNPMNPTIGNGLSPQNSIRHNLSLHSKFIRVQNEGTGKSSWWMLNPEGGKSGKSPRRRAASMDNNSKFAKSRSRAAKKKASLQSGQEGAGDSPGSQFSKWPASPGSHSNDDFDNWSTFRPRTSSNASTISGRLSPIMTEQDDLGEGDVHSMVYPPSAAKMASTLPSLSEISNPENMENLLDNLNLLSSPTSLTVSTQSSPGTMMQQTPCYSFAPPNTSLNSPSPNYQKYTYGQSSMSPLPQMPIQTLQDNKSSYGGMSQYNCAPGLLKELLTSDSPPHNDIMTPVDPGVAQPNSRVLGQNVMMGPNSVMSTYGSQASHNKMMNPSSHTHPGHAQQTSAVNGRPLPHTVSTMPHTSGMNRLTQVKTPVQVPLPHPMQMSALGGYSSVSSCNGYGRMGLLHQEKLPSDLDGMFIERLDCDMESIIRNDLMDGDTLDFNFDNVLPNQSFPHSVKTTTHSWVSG

B1: EWS::FLI1-specific oligonucleotide (GGAA repeats) (dsDNA)
DNA 1: ACCGGAAGGAAGGAAGGAAGGAAGGAAGGAAGTG
DNA 2: CACTTCCTTCCTTCCTTCCTTCCTTCCTTCCGGT
As to B1, in data set [1], the binding result is reported as “no binding”.

B2: PAX3::FOXO1-specific oligonucleotide (dsDNA)
DNA 1: ACCGTGACTAATTTAATTAGTCACG
DNA 2: CGTGACTAATTAAATTAGTCACGGT
Take B2: in data set [2], the Kd (usually the free concentration of one partner at which half of the binding sites on the other are occupied at equilibrium, for simple one-to-one binding) is 6.3 nM.
